Data taken from the supplement of paper PMC9170038.

Test system: MS2 coat protein
Test: apparent KD of MS2 coat protein; higher = weaker reporter binding
Conditions: Eterna round: R107
Procedure, shortened: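 Apparent KD stands for the median, per design, of fits to normalised cluster binding curves. The curves came from titrating on-chip-transcribed RNA switches on Illumina sequencing clusters with SNAP-549-labelled MS2 coat protein, twofold from 0.7 or 1.5 nM to 3 µM. Buffer was 100 mM Tris-HCl pH 7.5, 80 mM KCl, 4 mM MgCl2, without or with constant ligand.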

[1] = input ligand: theophylline 20 uM
[2] = input ligand: theophylline 2 mM
[3] = input ligand: tryptophan 2.4 mM

Sequence	apparent KD of MS2 coat protein (input ligand: arginine 13.2 mM)	apparent KD of MS2 coat protein (input ligand: none)	apparent KD of MS2 coat protein [1]	apparent KD of MS2 coat protein [2]	apparent KD of MS2 coat protein [3]
GACUAUAUGAUAUGUCAGAAAUCCUCGAAACGAGGACCGGUACGGCCGCCACUCGAGUGAUCAACAUGAGGAUCACCCAUGUAAA [Tryp A Ex t1]	0.0361 µM	0.0362 µM	0.0475 µM	0.0284 µM	0.0553 µM
UGAUGGUACGGAAGGAGCGUGUAAGAACAAGAACAUGAGGAUCACCCAUGUAUUAAUUUAACACAGGUAGGUCGCCGAGUUAUUG [11.G]	0.0178 µM	0.0173 µM	0.0267 µM	0.0232 µM	0.0165 µM
GGCGUCGGGCGAAGGAGCGUGAAGACAUGAGGAUCACCCAUGUAGAGGCCCGAACAGGGUUCGCAGGUAGGUCGCGCGCGGUGCC [#1 Same State - Arginine B Attempt #6 (HarryS)]	0.0115 µM	0.0136 µM	0.0247 µM	0.0214 µM	0.0156 µM
GUCAGUAGAACAGAUACCAGUCAAAAGCUGUGAUCUCAUAACAUGAGGAUCACCCAUGUUGACCCUUGGCAGCUGUGGGCGAGGG [#19 Exclusion-TheophyllineB]	0.027 µM	–	0.0291 µM	–	0.0191 µM
UGUAUGUGAUCUGAUACCAGUCCAACUGGUAAAACUUGAGGAUCACCCAAGUAAAAUUGGGACCCUUGGCAGCAGAUCGCAUACU	0.126 µM	0.371 µM	0.36 µM	0.0817 µM	0.371 µM
CGGUAACCACAUGAGGAUCACCCAUGUGAAGGAGCGGCGAAUAAGCCAGGUAGGUCGCGCAUGAAUAAAUCAUGUAGGUGCCGAA [XArg-A 15 NuPack]	0.0312 µM	0.0484 µM	0.0697 µM	0.156 µM	0.0998 µM
AAAUAAUAUUAAUUAAUUAUAUUAUUCUGACGAGGACCGGUACGGCCGCCACUCGGCCCAUGGUACAUGAGGAUCACCCAUGUCU [Same State - Tryptophan A]	0.017 µM	–	0.0172 µM	0.0189 µM	–
ACAUGAGGAUCACCCAUGUACAUGACGGAAGGAGCGUGCAAAAGCACAGGUAGGUCGCCGAUCUACAUAUUGGGUAUUAUAUUUU [#29 Exclusion - Arginine A]	0.0154 µM	0.0194 µM	0.0357 µM	0.0283 µM	0.0242 µM
ACAUGAGGAUCACCCAUGUUAAACAGGGUGCGAGGACCGGUACGGCCGCCACUCGGACAUUAUUACGAGUGAAUGGCAACGAUGU [#12 Exclusion Tryptophan A]	0.0265 µM	–	0.0241 µM	0.0244 µM	–
AACAUGAGGAUCACCCAUGUCCCAUGUGAACGAGGACCGGUACGGCCGCCACUCGACCGAGGCGGCACAUGAGGAUCACCCGCAU [whbob_SS_trypto A_2s14]	0.161 µM	–	0.481 µM	0.682 µM	–
CAUAUAUAUAGAAGGAGCGUCGAAAAUGGGUAAACAUGAGGAUCACCCAUGUAAAGGGAACGACAGGUAGGUCGCUAUAUAUAUG [AstromonsSSArgB#3]	0.0991 µM	0.161 µM	0.187 µM	0.208 µM	0.175 µM
UGGGUACAUGAGGAUCACCCAUGUACUGAAGGAGCGGGACGAAUCUCAGGUAGGUCGCAGACAUGAGGAUCACCCAUGUAGUGGA [Exclusion Arginine A GF 15]	0.0139 µM	0.0159 µM	0.0178 µM	0.0172 µM	0.0146 µM
AAUAAUAACAUGGGUGCACGAGUGGCAUAACGAGGACCGGUACGGCCGCCACUCGAACAUGAGGAUCACCCAUGUAGCCACUCGA [M'-T'-T-MS2-T'' - Design 4]	0.0551 µM	0.102 µM	0.102 µM	0.132 µM	0.0205 µM
CCUCAUGAACAUGAGGAUCACCCAUGUACACGAGGACCGGUACGGCCGCCACUCGAAUAACCUUAAUAUAAAUAAUAAUAAAAGG [5' end split MS2]	0.0145 µM	0.0167 µM	0.0215 µM	0.0191 µM	0.0455 µM
GGCGACAUGAGGAUCACCCAUGUGACACCUCGAGGACCGGUACGGCCGCCACUCGUAACCUGCACUAUAGCUACCACGAUUAGCC [theeternabot_sameState_MS2_Trp_A_44]	0.0843 µM	–	0.238 µM	0.233 µM	–
GGAUAGGACACGGCCGCCACUACCUAGGAUACUAGCAACAUUUGGGUACGUGAGGAUCACCCACGUAGGACCGGGUGUCCUAUCG	0.0152 µM	–	0.0191 µM	0.0145 µM	0.0204 µM
AUAUAUACAUGAGGAUCACCCAUGUUAUUUCGAGGACCGGUACGGCCGCCACUCGAUAGAGUAGAAGUAAAUUUUGAUUCAUGUA [JR_SSTryptoA_Sub009]	0.0179 µM	–	0.027 µM	0.0235 µM	–
GUUGGACUUUCGGCCGCCACUGAGAGAGUCAUGUGAACAUGAGGAUCACCCAUGUAAUAUAUAUACAGGACCGGGAGGGUUGUAA [4.M]	0.0117 µM	–	0.022 µM	0.0139 µM	–
AUUCCAUAGGUGCAGUUGUUAAAUGGCGAUACCAGCGUGGAAACACGCCCUUGGCAGCGCCAAAACAUGAGGAUCACCCAUGUUA [Kladno]	0.0483 µM	–	0.111 µM	–	0.0948 µM

Sequence	apparent KD of MS2 coat protein (input ligand: arginine 13.2 mM)	apparent KD of MS2 coat protein (input ligand: none)	apparent KD of MS2 coat protein [1]	apparent KD of MS2 coat protein [2]	apparent KD of MS2 coat protein [3]
AAUUCCUCACAUGAGGAUCACCCAUGUGAAGGAGCGCGGAAUAACGCAGGUAGGUCGCACAUGGAAACCGCUGCGAAAGCAGCAA [MAT - Exclusion Arginine A - Mod of Eli - D26]	0.0131 µM	0.0187 µM	0.024 µM	0.0181 µM	0.0163 µM
AGUACCAAUGAGGAUACCAGAGUGCGACGCCGAAACCUUGACAUGAGGAUCACCCAUGUACUCCCUUGGCAGCCUGUACUUGCCA [theeternabot_exclusion_MS2_Theo_B_17]	0.0228 µM	–	0.0407 µM	–	0.0349 µM
GGUACAUGAGGAUCACCCAUGUGUCAUGAUACCAGACAUGAAAAUGUCCCUUGGCAGCAUGCCAGACGGCCGCGUUUAGCGGCCG [Oresin]	0.0186 µM	0.0128 µM	0.0197 µM	0.0196 µM	0.0163 µM
GAUUACAUGAGGAUCACCCAUGUAACUGAAGGAGCGGUAAUAAAGCCAGGUAGGUCGCAGAACGACAUGUGGUUCAUCCAUGUAA [#15 Exclusion - Arginine A]	0.0143 µM	0.0391 µM	0.0469 µM	0.0355 µM	0.0304 µM
GAUUCGCAGUCGGCCGCCACUAACAUGAGCUGCUAGUUAUUAUCACAUGAGGAUCACCCAUGUCUUAGGACCGGGACAACCUGUU [theeternabot_sameState_MS2_Trp_B_26]	0.0483 µM	–	0.0791 µM	0.0853 µM	–
UUUUUCGCGUUUGAUACCAGCAGAGUUGUUCUGGUCUGGUACAUGAGGAUCACCCAUGUCUGCCCUUGGCAGCAAACGGGAGAAG [XTheo #30]	0.0145 µM	–	0.015 µM	–	0.0149 µM
ACAUUUAACUGAAGGAGCGUGAUAUGUACAUGAGGAUCACCCAUGUCUUACAUGUGAUAUUCACAGGUAGGUCGCAGACUAAUGA [JR_ExcArginiB_Sub004]	0.0227 µM	0.0188 µM	0.0232 µM	0.023 µM	0.0203 µM
UUCAGCUAGUCGGCCGCCACUACAUGAGGAUCACCCAUGUAUCCUAAACACUGCUUCGGCAGUGGUAGGACCGGGACUAGCUGAG	0.0181 µM	0.0139 µM	0.0216 µM	0.0183 µM	0.136 µM
UGUAUGGAAACAUGAGGAUCACCCAUGUGGCGAGGACCGGUACGGCCGCCACUCGAGCAGCAAGCGUGUAUGACGCUGCUGCAUG [SS-trypA-0]	0.0273 µM	0.0409 µM	0.0606 µM	0.0497 µM	0.0251 µM
GGAUAGGACACGGCCGCCACUGCCUAGGAUACUAGCAACAUUUGGGUACAAGAGGAUCACCCUUGUAGGACCGGGUGUCCUAUCG	0.0271 µM	0.025 µM	0.0386 µM	0.0293 µM	0.026 µM
UAUCCACAUGAGGAUCACCCAUGUUAGGAAGGAGCGGUGAAUGAACCAGGUAGGUCGCCUAGCUGAGGACCGUCGAUGGAUUCGU [Exclusion - Arginine A (Freestyle 16)]	0.0137 µM	0.0273 µM	–	0.0282 µM	0.0184 µM
UGUCAGCGAAAGUUGACAUGUCUUACCGGUCGAGGACCGGUACGGCCGCCACUCGAUCUCUCGCACAUGAGGAUCACCCAUGUCG [SS Tryp A #17]	0.0128 µM	–	0.0154 µM	0.0128 µM	–
AAUAAGCAGCUGCCUUCCUCAUGAGCAGAUACCAGCUAGGAAACUAGCCCUUGGCAGCUGCAACAUGAGGAUCACCCAUGUAAUA [(T)'-(M)'-(T1)-(T2)-(M1)-(M2)_Design4]	0.0224 µM	–	0.0812 µM	–	0.0437 µM
UACAUGAGGAUCACCCAUGUGUAGAGGGAUACCAGUGACAGUAAGCACCCUUGGCAGCCCGUGAACAAAGGGUGGGCAAAAUAGU [#16 Exclusion-TheophyllineA]	0.0482 µM	0.0392 µM	0.0603 µM	0.0474 µM	0.0339 µM
UCACGGCACUGAAGGAGCGAGUUGACAAACAUGAGGAUCACCCAUGUUAUGGGUUGUUAAUCUCAGGUAGGUCGCAGUUGUCGUG [Same State Arginine B GF 21]	0.163 µM	0.379 µM	0.418 µM	0.458 µM	0.388 µM
UACAUGAGGAUCACCCAUGUCCCAUGUGAACGAGGACCGGUACGGCCGCCACUCGACCGAGGCGGCACAUGAGGAUCACCCGCAU [whbob_SS_trypto A_2s15]	0.121 µM	–	0.917 µM	1.14 µM	–
AGACAUGAGGAUCACCCAUGUAGCAUGGAUACCAGAUGUAGAUUAGUCCCUUGGCAGCUGUGGUGAAGUGAUGCAUUGCUCCUAG [Exclusion - Theophylline A (Freestyle 2)]	0.0299 µM	–	0.0743 µM	–	0.0501 µM
AAUGUAUGGCACAUGAGGAUCACCCAUGUGCGAGGACCGGUACGGCCGCCACUCGGUCCUGGAUUCUUAUUACUAUACAUUAAUG [XTryp A #16]	0.014 µM	–	0.0189 µM	0.0154 µM	–
UAAUCAGUGCCGGUUCUCGGAUCCUCAUGUCGAGGACCGGUACGGCCGCCACUCGAAACAUGAGGAUCACCCAUGUAAUAAUAAU [#09 Exclusion Tryptophan A]	0.0442 µM	–	0.116 µM	0.103 µM	–
